{"source": "paper PMC4674770", "about": "“Aβ-dependent reduction of NCAM2-mediated synaptic adhesion contributes to synapse loss in Alzheimer's disease” (Nature Communications, 2015)", "biological_target": "T1, Aβ1-42 peptide (Aβ1-42 oligomers, Aβ-derived diffusible ligands) (UniProt P05067 672-713)", "T1 construct": "amyloid-beta peptide 1-42, the cut product of the amyloid precursor protein APP; numbers count on: the Aβ peptide; Used as oligomers: by SDS-PAGE and western blot mainly tetramers (~18 kDa) with a minor monomer band (~4.5 kDa); also called synthetic Aβ_(1-42); source: bought: AbcamBiochemicals (synthetic Aβ1-42), prepared as Aβ-derived diffusible ligands", "test": "ELISA; NCAM2-ED (25 nM) or BSA (25 nM) held on MaxiSorp 96-well plates coated with antibodies against the extracellular domain of NCAM2; Aβ1-42 7.8-250 nM in 0.05% Tween 20 and 0.1% BSA; bound Aβ1-42 detected with antibodies against Aβ1-42 and HRP-conjugated secondary antibodies", "settings": "both partners purified"}
{"binder": "recombinant extracellular domain of NCAM2 (NCAM2-ED) (domain or fragment, mouse, UniProt O35136 20-698, looked up, signal peptide in the construct; neural cell adhesion molecule 2 (NCAM2, OCAM), mouse, extracellular domain, amino acids 1-698, amplified from a mouse brain cDNA library; About 100 kDa on gels; also called recombinant soluble extracellular domains of NCAM2; source: CHO cells (CHO-K1), stably transfected, secreted into the culture medium; purified (40% ammonia sulphate, desalted, …)) LLQVTISLSKVELSVGESKFFTCTAIGEPESIDWYNPQGEKIISTQRVMLQKEGVRSRLTIYNANIEDAGIYRCQATDAKGQTQEATVVLEIYQKLTFREVVSPQEFKQGEDAEVVCRVSSSPAPAVSWLYHNEEVTTIPDNRFAVLANNNLQILNINKSDEGIYRCEGRVEARGEIDFRDIIVIVNVPPAIMMPQKSFNATAERGEEMTLTCKASGSPDPTISWFRNGKLIEENEKYILKGSNTELTVRNIINKDGGSYVCKATNKAGEDQKQAFLQVFVQPHILQLKNETTSENGHVTLVCEAEGEPVPEITWKRAIDGVMFSEGDKSPDGRIEVKGQHGRSSLHIRDVKLSDSGRYDCEAASRIGGHQRSMHLDIEYAPKFVSNQTMYYSWEGNPINISCDVTANPPASIHWRREKLLLPAKNTTHLKTHSVGRKMILEIAPTSDNDFGRYNCTATNRIGTRFQEYILELADVPSSPHGVKIIELSQTTAKISFNKPESHGGVPIHHYQVDVKEVASETWKIVRSHGVQTMVVLSSLEPNTTYEIRVAAVNGKGQGDYSKIEIFQTLPVREPSPPSIHGQPSSGKSFKISITKQDDGGAPILEYIVKYRSKDKEDQWLEKKVQGNKDHIILEHLQWTMGYEVQITAANRLGYSEPTVYEFSMPPKPNIIKDTLFNG", "values": [{"measurement": "binding result", "result": "binds"}]}
